Laboratory results from patent US20250332297A1, “DLL3-SPECIFIC BINDING CONSTRUCTS AND THEIR USE IN RADIOTHERAPY” (MOLECULAR PARTNERS AG, priority 2024, published 2025).
Positions count from the first letter of the chain named.

Assays:
[1] = target: T1, human DLL3 expressed on HEK293T-huDLL3 cells (Homo sapiens, UniProt Q9NYJ7); assay: Cell binding titration on HEK293T-hDLL3 cells; format: cell-based; conditions: absence of human serum albumin, read-out: Cell binding EC50, w/o HSA
T1 construct: expressed in transfected cells; host or cells: HEK293T-hDLL3
T1 sequence (Q9NYJ7 27-618): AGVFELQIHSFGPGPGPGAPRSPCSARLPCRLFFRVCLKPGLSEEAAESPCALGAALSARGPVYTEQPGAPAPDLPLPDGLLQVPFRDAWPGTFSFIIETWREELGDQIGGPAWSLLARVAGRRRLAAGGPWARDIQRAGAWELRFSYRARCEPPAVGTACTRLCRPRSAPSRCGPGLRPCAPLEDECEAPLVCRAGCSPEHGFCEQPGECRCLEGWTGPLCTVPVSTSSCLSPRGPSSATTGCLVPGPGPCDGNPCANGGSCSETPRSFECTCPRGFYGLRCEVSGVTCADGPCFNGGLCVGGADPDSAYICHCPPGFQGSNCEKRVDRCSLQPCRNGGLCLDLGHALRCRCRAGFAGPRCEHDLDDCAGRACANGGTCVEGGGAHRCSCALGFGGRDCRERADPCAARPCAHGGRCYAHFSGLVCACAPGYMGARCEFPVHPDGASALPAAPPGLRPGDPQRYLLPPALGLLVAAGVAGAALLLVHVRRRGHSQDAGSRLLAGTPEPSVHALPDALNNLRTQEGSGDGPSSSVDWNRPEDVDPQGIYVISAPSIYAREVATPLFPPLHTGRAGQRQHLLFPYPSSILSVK
Protocol: Cell binding titration assays were performed for selected His-tagged single domain (1 D) and two domain (2D) designed ankyrin repeat proteins to determine binding to human DLL3 expressed on HEK293T-huDLL3 cells in absence and presence of human serum albumin. Controls included Rova antibody as a positive control and a non-binding DARPin comprising SEQ ID NO: 21 as a negative control. HEK293T-hDLL3 cells are HEK293T cells that were stably transfected to express human DLL3 on their surface.
In brief, 1×10^5 cells/well were resuspended in 100 μl DARPin dilution (500 nM, 1:5 serial diluted) and incubated for 1 h at 4° C. Cells were washed twice with PBS and resuspended in 100 μl anti-DARPin antibody (rabbit anti-DARPin 1.4.8) and LIVE/DEAD fixable cell stain (1:1000, Thermo Fisher #L34957). This step was performed in absence and presence of […] Human Serum Albumin (CSL Behring #150570). After incubation and washing, cells were incubated with detection antibody for 30 minutes (Goat anti-Human IgG (H+L), AF647, Thermo Fisher #21445). Cells were fixed (Paraformaldehyde Solution, LucernaChem) and acquired at Attune N×T (Thermo Life Technologies). Raw fcs files were exported and analyzed using FlowJo software. MFI values of live AF647-positive cells were exported from FlowJo and plotted using GraphPad Prism software. None of the tested ankyrin repeat proteins show binding to the HEK293T wildtype cells.

[2] = Pharmacokinetic analysis in WT BALBc mice (serum, ELISA); format: in vivo, mouse
Description: The pharmacokinetic (PK) properties of lead-labelled DARPin (MAM160, MAM279, MAM282, MAM283) conjugates were investigated in mice, including to determine the terminal half-life (or serum half-life) of these conjugates.
In brief, DARPins MAM279, MAM283, MAM160 and MAM282 were conjugated to the chelator DOTAM, via a C-terminal Cysteine containing tag and a connector, as described in Example 3. The conjugates were then labelled with natural lead (Pb). The protein components of the conjugates corresponded to SEQ ID NOs: 15 to 18, respectively. These lead-labelled DARPin conjugates were injected i.v. at 1 mg/kg into WT BALBc mice. Serum was collected 2 min, 10 min, 30 min, 1 h, 4 h, 24 h, 48 h, and 72 h post-injection. DARPins were detected and measured by ELISA. The data were expressed as the DARPin concentration in serum (nmol/L).
In brief, lead-labelled MAM279 conjugate, as described in Example 13, was injected i. at 0.1 mg/kg or at 1 mg/kg into the tail vein of WT BALBc mice. Serum was collected 2 min, 10 min, 30 min, 1 h, 4 h, 24 h, 48 h, and 72 h post-injection for MAM279 conjugate injected at 1 mg/kg, and 2 min, 30 min, 4 h, 24 h, 30 h, 48 h, 72 h, 96 h, and 168 h post-injection for MAM279 conjugate injected at 0.1 mg/kg. DARPins were detected and measured by ELISA. The data were expressed as the DARPin concentration in serum (nmol/L).
In brief, natural lead-labelled MAM279 conjugate, as described in Example 13, was injected i.v. at different doses (0.001 mg/kg, 0.01 mg/kg, 0.1 mg/kg, or 1 mg/kg) into the tail vein of WT BALBc mice. Similarly, unconjugated Rova was injected iv. at 1 mg/kg into the tail vein of WT BALBc mice. Serum was collected 2 min, 10 min, 30 min, 1 h, 4 h, 24 h, 48 h, and 72 h post-injection for MAM279 conjugate injected at 1 mg/kg, and 2 min, 30 min, 4 h, 24 h, 30 h, 48 h, 72 h, 96 h, and 168 h post-injection for MAM279 conjugate injected at 0.1 mg/kg, 0.01 mg/kg and 0.001 mg/kg. Serum was collected 2 min, 30 min, 4 h, 24 h, 30 h, 48 h, 72 h, 96 h, and 168 h post-injection for Rova antibody injected at 1 mg/kg. DARPins and Rova were detected and measured by ELISA. Rova PK characteristics were calculated with time points between 4 h and 168 h and MAM279 conjugate PK characteristics were calculated with time points between 4 h and 72 h. The data were expressed as the DARPin or Rova concentration in serum (nmol/L). Results are shown in FIGS. 19A and 19B and Table 22.

[3] = natural lead-labelled DOTAM conjugate 1 mg/kg i.v., Tables 16, 17
[4] = 1 mg/kg i.v., MAM279 natural lead-labelled conjugate (time points 4-72 h), Rova unconjugated (4-168 h), Table 22
[5] = 1 mg/kg i.v., MAM279 natural lead-labelled conjugate, Rova unconjugated, Table 22
[6] = natural lead-labelled DOTAM conjugate 0.1 mg/kg i.v., Table 17
[7] = natural lead-labelled conjugate 0.001 mg/kg i.v., Table 22
[8] = natural lead-labelled conjugate 0.01 mg/kg i.v., Table 22
[9] = natural lead-labelled conjugate 0.1 mg/kg i.v., Table 22

B1: MAM282: Two domain (2D) ankyrin repeat protein: serum albumin-specific domain (SEQ ID NO: 7), PT linker, DLL3-specific domain (SEQ ID NO: 2) (protein)
chain: DLGKKLLEAARAGQDDEVRELLKAGADVNAKDYFSHTPLHLAARNGHLKIVEVLLKAGADVNAKDFAGKTPLHLAADAGHLEIVEVLLKAGADVNAQDIFGKTPADIAADAGHEDIAEVLQKAAGSPTPTPTTPTPTPTTPTPTPTGSDLGKKLLAAAREGQDDEVRELLKAGADVNAKDIWGQTPLHIAAWFGHLEIVEVLLKAGADVNAKDQTGHTPLHLAAKFGHLEIVEVLLKAGADVNAQDLLGRTPADLAAEEGHEDIAEVLQKAA
modifications: Ankyrin repeat protein (MAM282)
In the case of B1, the EC50 [1] is reported as 21.2 nM, the AUCINF_pred [2, 3] is reported as 8.435 µM·h and the “AUC_% Back_Ext_pred” value [2, 3] is reported as 0%. The “AUC_% Extrap_pred” value [2, 3] was 17%, the AUClast [2, 3] was 7038.9 nmol·h/L and the CI_pred [2, 3] was 4 mL/h/kg. For the same molecule, the Cmax [2, 3] was 461 nM, the HL_Lambda_z [2, 3] was 28.5 h and the Tmax [2, 3] was 1.98 min. The Vss_pred [2, 3] was 0.153 L/kg.

B2: MAM279: Two domain (2D) ankyrin repeat protein: serum albumin-specific domain (SEQ ID NO: 7), PT linker, DLL3-specific domain of MAM093 (protein)
chain: DLGKKLLEAARAGQDDEVRELLKAGADVNAKDYFSHTPLHLAARNGHLKIVEVLLKAGADVNAKDFAGKTPLHLAADAGHLEIVEVLLKAGADVNAQDIFGKTPADIAADAGHEDIAEVLQKAAGSPTPTPTTPTPTPTTPTPTPTGSDLGKKLLAAAAQGQDDEVRELLKAGANVNAKDLFGYTPLHLAAWRGHLEIVEVLLKAGADVNAKDAAGETPLHLAAWFGHLEIVEVLLKAGADVNAQDLQGKTPADLAAKEGHEDIAEVLQKAA
modifications: Ankyrin repeat protein (MAM279)
B2 showed an EC50 [1] of 14.9 nM, an AUCINF_pre [2, 4] of 29.3837 µM·h and an AUClast [2, 4] of 23892.0 h*hr*nmol/L. The HL_Lambda_z [2, 4] was 30.5 h, the AUC_%Back_Ext_pre [2, 5] was 0% and the AUC_%Extrap_Pred [2, 5] was 19%. It also gave a Cl_pred [2, 5] of 1.2 mL/h/kg, a Cmax [2, 5] of 1330 nM and a Tmax [2, 5] of 1.98 min. The Vss_pred [2, 5] was 0.048 L/kg, the AUCINF_pred [2, 6] was 2.4051 µM·h and the “AUC_% Back_Ext_pred” value [2, 6] was 0%. For the same molecule, the “AUC_% Extrap_pred” value [2, 6] was 3%, the AUClast [2, 6] was 2343.4 nmol·h/L and the CI_pred [2, 6] was 1.4 mL/h/kg. The Cmax [2, 6] was 88.3 nM, the HL_Lambda_z [2, 6] was 32.8 h and the Tmax [2, 6] was 1.98 min. For the same molecule, the Vss_pred [2, 6] was 0.066 L/kg, the AUCINF_pred [2, 3] was 29.3837 µM·h and the “AUC_% Back_Ext_pred” value [2, 3] was 0%. The “AUC_% Extrap_pred” value [2, 3] was 19%, the AUClast [2, 3] was 23892.0 nmol·h/L and the CI_pred [2, 3] was 1.2 mL/h/kg. It also gave a Cmax [2, 3] of 1330 nM, an HL_Lambda_z [2, 3] of 30.5 h and a Tmax [2, 3] of 1.98 min. It also gave a Vss_pred [2, 3] of 0.048 L/kg, an AUCINF_pre [2, 7] of 0.007 µM·h and an AUC_%Back_Ext_pre [2, 7] of 0%. The AUC_%Extrap_Pred [2, 7] was 28%, the AUClast [2, 7] was 5.0 h*hr*nmol/L and the Cl_pred [2, 7] was 4.9 mL/h/kg. It also gave a Cmax [2, 7] of 0.29 nM, an HL_Lambda_z [2, 7] of 39.9 h and a Tmax [2, 7] of 1.98 min. The Vss_pred [2, 7] was 0.267 L/kg, the AUCINF_pre [2, 8] was 0.101 µM·h and the AUC_%Back_Ext_pre [2, 8] was 0%. It also gave an AUC_%Extrap_Pred [2, 8] of 3%, an AUClast [2, 8] of 98.3 h*hr*nmol/L and a Cl_pred [2, 8] of 3.4 mL/h/kg. For the same molecule, the Cmax [2, 8] was 3.7 nM, the HL_Lambda_z [2, 8] was 33.1 h and the Tmax [2, 8] was 1.98 min. For the same molecule, the Vss_pred [2, 8] was 0.157 L/kg, the AUCINF_pre [2, 9] was 2.4051 µM·h and the AUC_%Back_Ext_pre [2, 9] was 0%. For the same molecule, the AUC_%Extrap_Pred [2, 9] was 3%, the AUClast [2, 9] was 2343.4 h*hr*nmol/L and the Cl_pred [2, 9] was 1.4 mL/h/kg. It also gave a Cmax [2, 9] of 88.3 nM, an HL_Lambda_z [2, 9] of 32.8 h and a Tmax [2, 9] of 1.98 min. It also gave a Vss_pred [2, 9] of 0.066 L/kg.

B3: MAM283: Two domain (2D) ankyrin repeat protein: serum albumin-specific domain (SEQ ID NO: 7), PT linker, DLL3-specific domain (SEQ ID NO: 3) (protein)
chain: B2 chain with Q160D, K171Q, N175D, K204E, K237E, L247V, K270Q
modifications: Ankyrin repeat protein (MAM283)
With B3 the EC50 [1] was 22.1 nM, the AUCINF_pred [2, 3] was 14.4943 µM·h and the “AUC_% Back_Ext_pred” value [2, 3] was 0%. The “AUC_% Extrap_pred” value [2, 3] was 2%, the AUClast [2, 3] was 14243.6 nmol·h/L and the CI_pred [2, 3] was 2.3 mL/h/kg. It also gave a Cmax [2, 3] of 1440 nM, an HL_Lambda_z [2, 3] of 12.7 h and a Tmax [2, 3] of 1.98 min. It also gave a Vss_pred [2, 3] of 0.035 L/kg.

B4: MAM279 conjugate: SEQ ID NO: 15 conjugated to DOTAM-maleimide, labelled with Pb-212 (natural lead in PK studies) (conjugate)
chain: GSDLGKKLLEAARAGQDDEVRELLKAGADVNAKDYFSHTPLHLAARNGHLKIVEVLLKAGADVNAKDFAGKTPLHLAADAGHLEIVEVLLKAGADVNAQDIFGKTPADIAADAGHEDIAEVLQKAAGSPTPTPTTPTPTPTTPTPTPTGSDLGKKLLAAAAQGQDDEVRELLKAGANVNAKDLFGYTPLHLAAWRGHLEIVEVLLKAGADVNAKDAAGETPLHLAAWFGHLEIVEVLLKAGADVNAQDLQGKTPADLAAKEGHEDIAEVLQKAAGSGSC
modifications: DOTAM-maleimide, Pb-212 label; Ankyrin repeat protein with tag (GS-MAM279-tag)
B4 showed a serum half-life ([2]; 0.001 mg/kg i.v.) of 39.9 h, a serum half-life ([2]; 0.01 mg/kg i.v.) of 33.1 h and a serum half-life ([2]; 0.1 mg/kg i.v.) of 32.8 h. For the same molecule, the serum half-life ([2]; 1 mg/kg i.v.) was 30.5 h.
